Reference: the supplement of paper PMC9170038

test system: MS2 coat protein; experiment: apparent KD of MS2 coat protein, switch ON state; designed switch direction (-1 OFF switch, 1 ON switch): -1; higher = weaker reporter binding; details: FMN input: 0 or 200 uM; Eterna round: R93 (includes R88 designs)
Method in brief: (§1)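 Normalised binding curves from single clusters were fitted, and the median fit for each design is given as apparent KD. The clusters held designed RNA switches transcribed on-chip from Illumina sequencing clusters. These were titrated with SNAP-549-labelled MS2 coat protein (twofold steps from 0.7 or 1.5 nM to 3 µM, 0.8–1.5 h to 10–20 min per step) in 100 mM Tris-HCl pH 7.5, 80 mM KCl, 4 mM MgCl2, without or with constant ligand.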

Row | Sequence | apparent KD of MS2 coat protein [nM]
1 | CUCAUGUGAGGAUAUCAGUAGUAAAAAAAUAAAAUUACUACUGAGAAGGCACAUGAGGAUCACCCAUGUGAAAA [EX4 339: Super Stable 39] | 27.4
2 | GAAAAGUGAGGAUAUUCGGAUAGGAAAACGAAAACCUAUCCGAAGAAGGCACAUGAGGAUCACCCAUGUGAAAA [Mat - Exaclusion 4 - Eli mod - D44] | 22.4
3 | AAAAAGUGAGGAUAUUCGGAUAGGAAAACGAAAACCUAUCCGAAGAAGGCACAUGAGGAUCACCCAUGUGGAAA [67% Ecls-II - Early G + late G segment 2] | 22.6
4 | GAAAAGUGAGGAUAUACAGAUAAAAAAACGAAAAAAAAUCUGUAGAAGGCACAUGAGGAUCACCCAUGUAAAAG [Mat - Exclusion 4 - Mayanna - D107] | 36
5 | AACAUGUAAGGAUAUCUAAGAAAAGAAAAGAAAGAAAAGAAAGAGAAGGUACAUGAGGAUCACCCAUGUAAGAA [EteRNA is fun!] | 32.7
6 | AAAGUGUAAGGAUAUCUGAAAGGACACGAAAGUGACAAAGAAGAGAAGGUACAUGAGGAUCACCCAUGUAAAAA [milkweed 21] | 28.7
7 | AAACGUUGAGGAUAUACGAAAAAGGGUAGGUCAAAUAAAACACAUGAGGAUCACCCAUGUAGAAGGCAACGAAA | 333
8 | AAAAAACAUGAGGAUCACCCAUGUGAGGAUAUGUAAAAUAAAAUAAAAAUAAAAAAAAGCAGAAGGUAUAUGAA [Amethyst 66] | 31.4
9 | CUUAAGUGAGGAUAUCAGUAGUAAAAAAAUAAAAUUACUACUGAGAAGGCACAUGAGGAUCACCCAUGUUCCAA [EX4 341: Super Stable 41] | 29.7
10 | CUCAAGUUAGGAUAUCAAAGAAAAGAAGAGAAAGAAAAGAAUGAGAAGGAACAUGAGGAUCACCCAUGUAAGAA [EteRNA is fun!] | 33.4
11 | AGGGAACAUGAGGAUCACCCAUGUGAGGAUAUGCUAUGGAAAAUAAAAAUAAAACAUAGCAGAAGGCAUAAAAA [Denovo 10] | 52.1
12 | AACAGUACAGGAUAUACAUGAGGAUCACCCAUGUAAAAAUAAUAAAAGGGCUCAAAAAGUAGAAGGGUACUGGA [Moding Maslow revisited (73) 15] | 31.2
13 | AACAGUACAGGAUAUACAUGAGGAUCACCCAUGUGAGAAUUAAGUGGAAAACCACAAAGUAGAAGGGUACUGGA [Mat - Exclusion 3 - JL mod - D3] | 26.6
14 | AAAGGGUCAGGAUAUCGAUUAAUAAUAAAAUAAAUGAAGAUCGAGAAGGGACAUGAGGAUCACCCAUGUAUAAC [May 79] | 41.8
15 | AAAUAGGCAGGAUAUACAUGAAAAUUAAAAAAAAAAAAAAAACAUGAGGAUCACCCAUGUAGAAGGGUCAAAAA [Exclusion 2 - Omei 2] | 74.2
16 | AGAAAGUCAGGAUAUCAGAAACUAGUCGAAACGACUAGAAAUGAGAAGGGACAUGAGGAUCACCCAUGUAAGAA [Ex4 sub 2] | 46.3
17 | AAAAAACAUGAGGAUCACCCAUGUUAGGAUAUGCUAUGGAAAAUAAAAAAUAAACAUAGCAGAAGGAACAAAAA [Mat - Exclusion 1 - Eli mod - D30] | 21.2
18 | AGUUGGCGAGGAUAUACAUGAGGAUCACCCAUGUGAGAGAAAAAAAGGAGAAAAAAAAGUAGAAGGCGCUGACA [Ruth Fulton Benedict] | 42.3
19 | CUCUUGUCAGGAUAUGGAAGAAAAGAAAAGAAAGAAAAGAACCAGAAGGGACAUGAGGAUCACCCAUGUAAGAA [EteRNA is fun!] | 156

test system: MS2 coat protein; experiment: apparent KD of MS2 coat protein, switch OFF state (with FMN for OFF switches, without FMN for ON switches); designed switch direction (-1 OFF switch, 1 ON switch): -1; higher = weaker reporter binding; details: FMN input: 0 or 200 uM; Eterna round: R93 (includes R88 designs)
Method in brief: as §1

Row | Sequence | apparent KD of MS2 coat protein [nM]
20 | CUCAUGUGAGGAUAUCAGUAGUAAAAAAAUAAAAUUACUACUGAGAAGGCACAUGAGGAUCACCCAUGUGAAAA [EX4 339: Super Stable 39] | 16.1
21 | GAAAAGUGAGGAUAUUCGGAUAGGAAAACGAAAACCUAUCCGAAGAAGGCACAUGAGGAUCACCCAUGUGAAAA [Mat - Exaclusion 4 - Eli mod - D44] | 26.8
22 | AAAAAGUGAGGAUAUUCGGAUAGGAAAACGAAAACCUAUCCGAAGAAGGCACAUGAGGAUCACCCAUGUGGAAA [67% Ecls-II - Early G + late G segment 2] | 27.6
23 | GAAAAGUGAGGAUAUACAGAUAAAAAAACGAAAAAAAAUCUGUAGAAGGCACAUGAGGAUCACCCAUGUAAAAG [Mat - Exclusion 4 - Mayanna - D107] | 36.6
24 | AACAUGUAAGGAUAUCUAAGAAAAGAAAAGAAAGAAAAGAAAGAGAAGGUACAUGAGGAUCACCCAUGUAAGAA [EteRNA is fun!] | 18.3
25 | AAAGUGUAAGGAUAUCUGAAAGGACACGAAAGUGACAAAGAAGAGAAGGUACAUGAGGAUCACCCAUGUAAAAA [milkweed 21] | 18.1
26 | AAACGUUGAGGAUAUACGAAAAAGGGUAGGUCAAAUAAAACACAUGAGGAUCACCCAUGUAGAAGGCAACGAAA | 3.66
27 | AAAAAACAUGAGGAUCACCCAUGUGAGGAUAUGUAAAAUAAAAUAAAAAUAAAAAAAAGCAGAAGGUAUAUGAA [Amethyst 66] | 40.6
28 | CUUAAGUGAGGAUAUCAGUAGUAAAAAAAUAAAAUUACUACUGAGAAGGCACAUGAGGAUCACCCAUGUUCCAA [EX4 341: Super Stable 41] | 38.1
29 | CUCAAGUUAGGAUAUCAAAGAAAAGAAGAGAAAGAAAAGAAUGAGAAGGAACAUGAGGAUCACCCAUGUAAGAA [EteRNA is fun!] | 22.4
30 | AGGGAACAUGAGGAUCACCCAUGUGAGGAUAUGCUAUGGAAAAUAAAAAUAAAACAUAGCAGAAGGCAUAAAAA [Denovo 10] | 49.5
31 | AACAGUACAGGAUAUACAUGAGGAUCACCCAUGUAAAAAUAAUAAAAGGGCUCAAAAAGUAGAAGGGUACUGGA [Moding Maslow revisited (73) 15] | 66.3
32 | AACAGUACAGGAUAUACAUGAGGAUCACCCAUGUGAGAAUUAAGUGGAAAACCACAAAGUAGAAGGGUACUGGA [Mat - Exclusion 3 - JL mod - D3] | 234
33 | AAAGGGUCAGGAUAUCGAUUAAUAAUAAAAUAAAUGAAGAUCGAGAAGGGACAUGAGGAUCACCCAUGUAUAAC [May 79] | 64.6
34 | AAAUAGGCAGGAUAUACAUGAAAAUUAAAAAAAAAAAAAAAACAUGAGGAUCACCCAUGUAGAAGGGUCAAAAA [Exclusion 2 - Omei 2] | 80.3
35 | AGAAAGUCAGGAUAUCAGAAACUAGUCGAAACGACUAGAAAUGAGAAGGGACAUGAGGAUCACCCAUGUAAGAA [Ex4 sub 2] | 43.1
36 | AAAAAACAUGAGGAUCACCCAUGUUAGGAUAUGCUAUGGAAAAUAAAAAAUAAACAUAGCAGAAGGAACAAAAA [Mat - Exclusion 1 - Eli mod - D30] | 32.6
37 | AGUUGGCGAGGAUAUACAUGAGGAUCACCCAUGUGAGAGAAAAAAAGGAGAAAAAAAAGUAGAAGGCGCUGACA [Ruth Fulton Benedict] | 123
38 | CUCUUGUCAGGAUAUGGAAGAAAAGAAAAGAAAGAAAAGAACCAGAAGGGACAUGAGGAUCACCCAUGUAAGAA [EteRNA is fun!] | 37.7
